Test results reported in US20090202532A1 (TOHOKU UNIVERSITY, published 2009).

Target: human EGF receptor 1 (human, UniProt P00533 25-1210)
Test: cell-based or functional assay

B1: Ex3 scFv-Fc, IgG-type bispecific antibody of OHL-Fc and 5HL-CL (bispecific antibody)
heavy: not shown
light: QVQLVQSGAEVKKPGASVKVSCKASGYTFTSYWMHWVRQAPGQGLEWMGNIYPGSGGTNYAEKFKNRVTMTRDTSISTAYMELSRLRSDDTAVYYCARSGGPYFFDYWGQGTLVTVSSAGGGGSGGGGSGGGGSDIVMTQSPLSLPVTPGEPASISCRSSQNIVHNNGITYLEWYLQKPGQSPQLLIYKVSDRFSGVPDRFSGSGSGTDFTLKISRVEAEDVGVYYCFQGSHIPPTFGQGTKVEIKRTVAAPSVFIFPPSDEQLKSGTASVVCLLNNFYPREAKVQWKVDNALQSGNSQESVTEQDSKDSTYSLSSTLTLSKADYEKHKVYACEVTHQGLSSPVTKSFNRGEC
B1 was tested. Which “cytotoxicity, 51Cr release assay (Colo-Tc, EGFR/CHO and CHO cells)” value did it give?
The value was ~0.002 fold of the concentration of Ex3.
